Test results as given in patent US20100254975A1 (Amgen, published 2010).
Numbering of substitutions follows the chain as printed.

Key:
a4b7(R213S) (human) [1] = molecular target: a4b7(R213S) (human) (UniProt P13612); assay: FACS on transfected 293 cells, 1 microG/ml, PE anti-human IgG; control
a4b7(E97V) (human) [2] = molecular target: a4b7(E97V) (human) (UniProt P13612); assay: as above
human alpha4beta7 [3] = molecular target: T1, human alpha4beta7 (human, UniProt P13612 34-1032; P26010 20-798); assay: as above
a4(Q878R)b7 (human) [4] = molecular target: a4(Q878R)b7 (human) (UniProt P13612); assay: as above
a4b7(G629S) (human) [5] = molecular target: a4b7(G629S) (human) (UniProt P13612); assay: as above
a4(V824A)b7 (human) [6] = molecular target: a4(V824A)b7 (human) (UniProt P13612); assay: as above
human alpha4beta7 [7] = molecular target: T1, human alpha4beta7; assay: KinExA, HUT78 cells expressing human alpha4beta7, upper bound of Kd
From the text: (§1) To measure cell binding affinity of human anti-alpha4beta7antibodies, a Kinetic Exclusion Assay which measures binding events in solution phase can be used to calculate the equilibrium dissociation constant, Kd. KinExA® Technology (Sapidyne Instruments, Boise, Id.) was used, substantially as described previously by Xie et. al. J. Imm, Methods 304:1 (2005) and Rathanaswami et. al. Anal. Biochem. 373:52 (2008). Briefly, HUT78 cells expressing human alpha4beta7 were titrated 1 in 3 from […] to ˜400 cells/mL and then equilibrated with a final concentration of either 2 or 30 pM of mAb 2F12 or 18A11 and 30 or 500 pM for 17C8 for 18 hours at 4° C. The free antibody remaining in the supernatant at equilibrium was measured by KinExA® technology by passing the supernatant over PMMA beads pre-coated with goat anti-human Fc and detected with goat anti-human (H+L) Cy5 (substantially as described by Rathanaswami et al. Biochem Biophys Research Commun:1004 (2005). The equilibrium dissociation constant (Kd) is obtained using KinExA® software by “n-curve analysis” which fits all of the given curves to a single Kdvalue simultaneously (Rathanswami et al. 2005 and Xie et al., supra).; results are shown below in Table 7.

human alpha4beta7 [8] = molecular target: T1, human alpha4beta7; assay: KinExA, HUT78 cells expressing human alpha4beta7, n-curve analysis
From the text: as §1

human alpha4beta7 [9] = molecular target: T1, human alpha4beta7; assay: FACS, biotinylated antibody on human CD4+CD45RA- memory T cells
Method: Human peripheral blood mononuclear cells (PBMC; fresh or frozen and thawed, for example in phosphate buffered saline with 2% FBS) are washed and resuspended in HEPES buffer (30 mM HEPES+[…]) with 1% BSA, with or without 1 mM MnCl₂ (depending on the experiment; Mn²⁺ is necessary for MAdCAM-1 binding) and plated into 96 well plates (10⁶cells/well). Cells are incubated with 10 microG/ml human IgG for 30 minutes on ice to block nonspecific binding. Cells are then incubated with serial dilutions of biotinylated anti-alpha4beta7 antibodies in 96 well plates for one hour on ice, followed by addition of 1:100 dilution of streptavidin-phycoerythrin (PE; Jackson ImmunoResearch Laboratories Inc., West Grove, Pa.), 4 microL CD3-Pacific Blue, CD4-PerCP-Cy5.5 and CD45RA-fluorescein isothiocyanate (FITC) (BD Biosciences, San Jose Calif.) for a final volume of 100 microL, and incubated for another hour on ice. Cells were washed twice with HEPES buffer (with or without MnCl₂, correspondingly) and then fixed in 200 microL HEPES buffer plus 0.5% paraformaldehyde (again, with or without MnCl₂, correspondingly). The percentage of positive alpha4beta7 antibody binding CD4+CD45RA-memory T cells is determined using a fluorescence activated cell sorter (FACS), for example, a BD™ LSR II benchtop flow cytometer (BD Biosciences, San Jose Calif.).

human alpha4beta7 [10] = molecular target: T1, human alpha4beta7; assay: cell-based or functional assay
human alpha4beta7 [11] = molecular target: T1, human alpha4beta7; assay: FACS competition, blocks biotinylated MAdCAM-1-Fc binding to human CD4+CD45RA- memory T cells
Method: PBMC (fresh or frozen as described previously) are washed and resuspended in HEPES buffer (30 mM HEPES+[…]) with 1% BSA and 1 mM MnCl. to a final concentration of 10⁷cells/ml. Cells are blocked as described previously; after blocking, cells are incubated with a serial dilution of anti-alpha4beta7 antibody (or appropriate control) in 96 well plates for 30 minutes on ice, and then with 0.3 microG/ml biotinylated MAdCAM-1-Fc protein for another one hour.
After two washes in HEPES buffer with 1 mM MnCl, cells are treated with 1:100 dilution of streptavidin-PE, 4 microL CD3-Pacific Blue, CD4-PerCP-Cy5.5 and CD45RA-FITC as described previously, in a final volume of 100 microL. After one hour incubation on ice, cells are washed twice with HEPES buffer with 1 mM MnCl and then fixed in 200 microL buffer plus 0.5% paraformaldehyde. The percentage of positive MAdCAM-1-Fc binding CD4+CD45RA-memory T cells is determined by fluorescence activated cell sorter (FACS) analysis, as described previously.

a4b7(R213S) (human) [12] = molecular target: a4b7(R213S) (human) (UniProt P13612); assay: FACS on transfected 293 cells, 1 microG/ml, PE anti-human IgG
a4b7(E97V) (human) [13] = molecular target: a4b7(E97V) (human) (UniProt P13612); assay: as above
a4(Q878R)b7 (human) [14] = molecular target: a4(Q878R)b7 (human) (UniProt P13612); assay: as above
a4b7(G629S) (human) [15] = molecular target: a4b7(G629S) (human) (UniProt P13612); assay: as above
a4(V824A)b7 (human) [16] = molecular target: a4(V824A)b7 (human) (UniProt P13612); assay: as above
human alpha4beta7 [17] = molecular target: T1, human alpha4beta7; assay: KinExA, HUT78 cells expressing human alpha4beta7, lower bound of Kd
From the text: as §1

human alpha4beta7 [18] = molecular target: T1, human alpha4beta7; assay: FACS on transfected 293 cells, 1 microG/ml, PE anti-human IgG
From the text: Point mutant constructs representing amino acid altering SNPs (a4b7(E97V); a4b7(R213S); a4b7(G629S; a4(V824A)b7; a4(Q878R)b7) in the extracellular domains of both alpha4 and beta7 were generated. Each point mutant construct was transfected to 293 cells along with the wild-type partner expression construct. Transfected 293 cells were first stained with 1 microG/ml of human IgG or anti-alpha4beta7 antibody, washed with PBS, and the stained with phycoerytherin conjugated secondary antibody goat-anti human IgG. After washing with PBS, cells were analyzed by fluorescence activated cell sorting, for example, with a FACSCalibur™ (BD Biosciences, San Jose Calif.).

T1 sequence (P13612 34-1032, chain 1 of 2): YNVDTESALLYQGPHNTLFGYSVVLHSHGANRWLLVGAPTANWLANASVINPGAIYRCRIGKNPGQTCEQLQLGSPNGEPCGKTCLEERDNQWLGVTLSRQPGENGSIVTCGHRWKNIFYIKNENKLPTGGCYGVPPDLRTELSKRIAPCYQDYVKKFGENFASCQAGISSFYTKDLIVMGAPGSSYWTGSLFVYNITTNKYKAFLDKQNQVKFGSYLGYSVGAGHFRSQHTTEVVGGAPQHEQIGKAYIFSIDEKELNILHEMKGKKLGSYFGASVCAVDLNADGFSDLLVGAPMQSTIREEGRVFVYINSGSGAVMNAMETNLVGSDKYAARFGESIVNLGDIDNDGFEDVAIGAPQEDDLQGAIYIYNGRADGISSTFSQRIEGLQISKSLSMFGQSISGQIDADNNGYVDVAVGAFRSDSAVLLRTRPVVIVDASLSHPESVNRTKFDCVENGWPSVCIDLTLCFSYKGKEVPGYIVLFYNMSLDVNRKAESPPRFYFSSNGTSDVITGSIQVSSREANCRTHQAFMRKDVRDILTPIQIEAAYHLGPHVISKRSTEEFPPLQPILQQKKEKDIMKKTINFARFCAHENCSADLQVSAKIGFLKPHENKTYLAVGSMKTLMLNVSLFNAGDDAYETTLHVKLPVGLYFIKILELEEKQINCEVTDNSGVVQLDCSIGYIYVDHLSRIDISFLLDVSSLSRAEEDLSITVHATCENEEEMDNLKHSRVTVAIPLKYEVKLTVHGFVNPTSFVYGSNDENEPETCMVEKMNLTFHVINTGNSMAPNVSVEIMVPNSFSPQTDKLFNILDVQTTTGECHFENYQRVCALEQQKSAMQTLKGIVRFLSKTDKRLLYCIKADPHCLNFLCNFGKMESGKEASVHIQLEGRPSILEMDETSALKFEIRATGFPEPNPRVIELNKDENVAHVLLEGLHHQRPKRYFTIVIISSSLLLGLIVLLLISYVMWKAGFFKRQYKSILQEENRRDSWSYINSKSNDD
T1 sequence (P26010 20-798, chain 2 of 2): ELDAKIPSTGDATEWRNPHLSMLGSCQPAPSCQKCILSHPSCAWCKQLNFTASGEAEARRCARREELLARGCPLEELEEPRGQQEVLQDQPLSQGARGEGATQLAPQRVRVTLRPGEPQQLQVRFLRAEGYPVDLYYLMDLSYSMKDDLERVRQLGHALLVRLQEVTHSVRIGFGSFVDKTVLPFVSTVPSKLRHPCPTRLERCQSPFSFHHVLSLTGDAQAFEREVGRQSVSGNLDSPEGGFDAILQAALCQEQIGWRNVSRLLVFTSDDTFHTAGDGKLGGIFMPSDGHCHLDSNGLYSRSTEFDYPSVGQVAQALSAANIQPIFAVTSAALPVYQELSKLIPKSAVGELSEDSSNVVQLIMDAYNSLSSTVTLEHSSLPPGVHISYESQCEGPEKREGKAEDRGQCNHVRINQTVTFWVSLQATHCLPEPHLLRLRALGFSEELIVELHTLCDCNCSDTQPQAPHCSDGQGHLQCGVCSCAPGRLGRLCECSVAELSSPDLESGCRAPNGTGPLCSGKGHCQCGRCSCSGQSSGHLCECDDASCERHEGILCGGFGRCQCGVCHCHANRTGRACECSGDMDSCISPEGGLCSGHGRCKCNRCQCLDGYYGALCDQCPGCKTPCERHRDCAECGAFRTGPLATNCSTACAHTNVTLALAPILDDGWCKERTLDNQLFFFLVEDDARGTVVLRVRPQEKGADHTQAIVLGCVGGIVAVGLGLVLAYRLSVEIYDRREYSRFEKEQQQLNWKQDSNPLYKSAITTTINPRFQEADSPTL
Chain of a4b7(E97V) (human) (P13612 34-1032, chain 1 of 2): as the sequence (P13612 34-1032, chain 1 of 2) above
Chain of a4b7(E97V) (human) (P26010 20-798 E97V, chain 2 of 2, further chain): as the sequence (P26010 20-798, chain 2 of 2) above, with E78V counted along it
Chain of a4b7(R213S) (human) (P13612 34-1032, chain 1 of 2): as the sequence (P13612 34-1032, chain 1 of 2) above
Chain of a4b7(R213S) (human) (P26010 20-798 R213S, chain 2 of 2, further chain): as the sequence (P26010 20-798, chain 2 of 2) above, with R194S counted along it
Chain of a4b7(G629S) (human) (P13612 34-1032, chain 1 of 2): as the sequence (P13612 34-1032, chain 1 of 2) above
Chain of a4b7(G629S) (human) (P26010 20-798 G629S, chain 2 of 2, further chain): as the sequence (P26010 20-798, chain 2 of 2) above, with G610S counted along it
Chain of a4(Q878R)b7 (human) (P13612 34-1032, chain 1 of 2): as the sequence (P13612 34-1032, chain 1 of 2) above
Chain of a4(Q878R)b7 (human) (P26010 20-798, chain 2 of 2, further chain): as the sequence (P26010 20-798, chain 2 of 2) above
Chain of a4(V824A)b7 (human) (P13612 34-1032 V824A, chain 1 of 2): as the sequence (P13612 34-1032, chain 1 of 2) above, with V791A counted along it
Chain of a4(V824A)b7 (human) (P26010 20-798, chain 2 of 2, further chain): as the sequence (P26010 20-798, chain 2 of 2) above

human IgG (antibody)
fluorescence staining intensity (geometric mean) (a4b7(R213S) (human) [1]): 7 | fluorescence staining intensity (geometric mean) (a4b7(E97V) (human) [2]): 7 | fluorescence staining intensity (geometric mean) (human alpha4beta7 [3]): 8 | fluorescence staining intensity (geometric mean) (a4(Q878R)b7 (human) [4]): 7 | fluorescence staining intensity (geometric mean) (a4b7(G629S) (human) [5]): 7 | fluorescence staining intensity (geometric mean) (a4(V824A)b7 (human) [6]): 7

B1: 2F12 (antibody, V domains shown)
VH: QVQLVQSGAEVKKPGASVKVSCKVSGYTVTDLSMHWVRQAPGKGLEWMGGFDPQDGETIYAQKFQGRVTMTEDTSTDTAYMELRSLRSEDTAVYYCTTESSSAWFDPWGQGTLVTVSS
VL: DIQMTQSPSSVFASVGDRVTITCRASQGISSWLAWYQQKPGKAPNLLIYGASSLQNGVPLRFSGSGSGTDFTLTISSLQPEDFATYYCQQANSFPWTFGQGTKVEIK
notes: Fully human monoclonal from XenoMouse (human IgG2 or IgG4); kappa light chain; also called 2F12K; 2F12H
Kd high (human alpha4beta7 [7]): 11.1 pM | Kd (human alpha4beta7 [8]): 4.56 pM | EC50 (human alpha4beta7 [9]): 3.3 ng/mL | HUT78 Adhesion IC50 (human alpha4beta7 [10]): 11.4 ng/mL | IC50 (human alpha4beta7 [11]): 4.6 ng/mL | fluorescence staining intensity (geometric mean) (a4b7(R213S) (human) [12]): 37 | fluorescence staining intensity (geometric mean) (a4b7(E97V) (human) [13]): 134 | fluorescence staining intensity (geometric mean) (a4(Q878R)b7 (human) [14]): 73 | fluorescence staining intensity (geometric mean) (a4b7(G629S) (human) [15]): 80 | fluorescence staining intensity (geometric mean) (a4(V824A)b7 (human) [16]): 112 | Kd low (human alpha4beta7 [17]): 1.94 pM | fluorescence staining intensity (geometric mean) (human alpha4beta7 [18]): 129

B2: 18A11 (antibody, V domains shown)
VH: B1 VH with V29L, T30S, M34I, R84S, R87K, T97A, E99G, A103S
VL: B1 VL with F12S, N45K, S53N, Q55E, N56S, L60S, T85N
notes: Fully human monoclonal from XenoMouse (human IgG2 or IgG4); kappa light chain; also called 18A11K; 18A11H
Kd high (human alpha4beta7 [7]): 2.29 pM | Kd (human alpha4beta7 [8]): 0.9 pM | EC50 (human alpha4beta7 [9]): 4.7 ng/mL | HUT78 Adhesion IC50 (human alpha4beta7 [10]): 7.4 ng/mL | IC50 (human alpha4beta7 [11]): 7.3 ng/mL | fluorescence staining intensity (geometric mean) (a4b7(R213S) (human) [12]): 30 | fluorescence staining intensity (geometric mean) (a4b7(E97V) (human) [13]): 105 | fluorescence staining intensity (geometric mean) (a4(Q878R)b7 (human) [14]): 56 | fluorescence staining intensity (geometric mean) (a4b7(G629S) (human) [15]): 63 | fluorescence staining intensity (geometric mean) (a4(V824A)b7 (human) [16]): 82 | Kd low (human alpha4beta7 [17]): 0.23 pM | fluorescence staining intensity (geometric mean) (human alpha4beta7 [18]): 92

B3: 17C8 (antibody, V domains shown)
VH: QVQLVESGGGLVKPGGSLRLSCAASGFTFSDYYMSWIRQAPGKGLEWLSYISNSGSAMYYADSVKGRFTISRDNARNSLYLQMNSLRAEDTAVYYCAREYSSGWFFFESWGQGTLVTVSS
VL: EIVMTQSPATLSVSPGERATLSCRASQSVSSNLVWYQQKPGQAPRLLIYGASTRATGIPARFSGSGSGTDFTLTISSLQSEDFAVYYCQQYDDWPPLTFGGGTTVEIK
notes: Fully human monoclonal from XenoMouse (human IgG2 or IgG4); kappa light chain; also called 17C8K; 17C8H
Kd high (human alpha4beta7 [7]): 74.5 pM | Kd (human alpha4beta7 [8]): 29.4 pM | EC50 (human alpha4beta7 [9]): 22.9 ng/mL | HUT78 Adhesion IC50 (human alpha4beta7 [10]): 6.8 ng/mL | IC50 (human alpha4beta7 [11]): 31.1 ng/mL | fluorescence staining intensity (geometric mean) (a4b7(R213S) (human) [12]): 49 | fluorescence staining intensity (geometric mean) (a4b7(E97V) (human) [13]): 96 | fluorescence staining intensity (geometric mean) (a4(Q878R)b7 (human) [14]): 51 | fluorescence staining intensity (geometric mean) (a4b7(G629S) (human) [15]): 58 | fluorescence staining intensity (geometric mean) (a4(V824A)b7 (human) [16]): 74 | Kd low (human alpha4beta7 [17]): 12.1 pM | fluorescence staining intensity (geometric mean) (human alpha4beta7 [18]): 93
